Biological target: T1, RUVBL2-His (human, UniProt Q9Y230 1-463)
T1 construct: RUVBL2, AAA+ ATPase; cDNA amplified from a Mammalian Gene Collection clone, cloned into pET-23a+; also called polyhistidine-tagged RUVBL2; source: E. coli One Shot BL21 Star DE3, purified (Ni-NTA agarose)
Test: pull-down; 500 ng GST-tagged protein with 100 ng His-tagged protein and glutathione beads in 1 ml binding buffer (50 mM NaCl, 50 mM HEPES-KOH pH 7.6, 0.1% NP-40), 2 h at 4 °C; in presence of ATP, ADP or γ-S-ATP; immunoblot
Details: both partners purified

T1 sequence (Q9Y230 whole entry): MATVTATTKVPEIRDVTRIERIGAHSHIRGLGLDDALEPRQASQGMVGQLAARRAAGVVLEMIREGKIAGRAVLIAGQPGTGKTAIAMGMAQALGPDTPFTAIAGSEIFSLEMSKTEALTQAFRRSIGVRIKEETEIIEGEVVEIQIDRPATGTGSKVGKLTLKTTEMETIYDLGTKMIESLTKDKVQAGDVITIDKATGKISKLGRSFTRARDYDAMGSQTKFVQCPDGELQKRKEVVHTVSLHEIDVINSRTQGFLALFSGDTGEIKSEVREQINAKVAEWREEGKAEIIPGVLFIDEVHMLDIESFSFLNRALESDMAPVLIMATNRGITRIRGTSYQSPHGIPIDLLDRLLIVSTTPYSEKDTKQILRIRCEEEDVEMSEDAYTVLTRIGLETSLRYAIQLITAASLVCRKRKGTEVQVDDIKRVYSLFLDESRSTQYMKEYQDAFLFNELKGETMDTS

- binding result: binds
B1: GST-ZNHIT2 (full-length) (natural protein, human, UniProt Q9UHR6 1-403, looked up)
chain: MEPAGPCGFCPAGEVQPARYTCPRCNAPYCSLRCYRTHGTCAENFYRDQVLGELRGCSAPPSRLASALRRLRQQRETEDEPGEAGLSSGPAPGGLSGLWERLAPGEKAAFERLLSRGEAGRLLPPWRPWWWNRGAGPQLLEELDNAPGSDAAELELAPARTPPDSVKDASAAEPAAAERVLGDVPGACTPVVPTRIPAIVSLSRGPVSPLVRFQLPNVLFAYAHTLALYHGGDDALLSDFCATLLGVSGALGAQQVFASAEEALQAAAHVLEAGEHPPGPLGTRGAMHEVARILLGEGPTNQKGYTLAALGDLAQTLGRARKQAVAREERDHLYRARKKCQFLLAWTNENEAALTPLALDCARAHQAHAVVAEEVAALTGELERLWGGPVPPAPRTLIEELPS
notes: ZNHIT2, human ZNHIT family member; cDNA amplified from a Mammalian Gene Collection clone, cloned into pGEX-4T-1; also called GST-tagged ZNHIT2; source: E. coli One Shot BL21 Star DE3, purified (Glutathione Sepharose 4B)

From publication PMC5460035 (Nature Communications, 2017)
